Assays:
[1] = target: the molecule itself; test: SPR (Biacore J), Beacon immobilised on CM5 chip
Description: (§1) SPR analyses were performed with minor variations as described in Walder et al., 2002, supra using a Biacore J instrument (Biacore AB). Beacon was attached to a CM5 sensor chip at pH 5.5 by an amine coupling reaction. HBS-EP (10 mM Hepes pH 7.4/0.15 M NaCl/3 mM EDTA/0.005% Polysorbate 20) was used as running buffer. Flow cells 1 and 2 in the sensor chip were treated in the same manner except that ligand was absent in flow cell 2 which served as a reference cell. Binding experiments were performed in dual channel mode and the reference subtracted sensorgrams represented true binding patterns between ligand and analyte. Test samples diluted to 130 μl in running buffer were injected over a fixed duration of 4 min. For heat treatments, proteins were initially diluted to 20 μl in running buffer, incubated at 65 or 70° C. for 10 min, centrifuged for 30 sec, reconstituted to a final volume of 130 μl with running buffer and injected as usual. Between injections, chips were regenerated using 40 μl of 10 mM NaOH.

maltose binding protein = maltose binding protein (UniProt P0AEX9 27-396 = MBP); test: SPR (Biacore J), Beacon immobilised on CM5 chip
Description: as §1

bovine serum albumin = target: T1, bovine serum albumin (bovine, UniProt P02769 25-607); test: SPR (Biacore J), Beacon immobilised on CM5 chip
T1 construct: Unrelated control protein in SPR
T1 sequence (P02769 25-607 limits assumed): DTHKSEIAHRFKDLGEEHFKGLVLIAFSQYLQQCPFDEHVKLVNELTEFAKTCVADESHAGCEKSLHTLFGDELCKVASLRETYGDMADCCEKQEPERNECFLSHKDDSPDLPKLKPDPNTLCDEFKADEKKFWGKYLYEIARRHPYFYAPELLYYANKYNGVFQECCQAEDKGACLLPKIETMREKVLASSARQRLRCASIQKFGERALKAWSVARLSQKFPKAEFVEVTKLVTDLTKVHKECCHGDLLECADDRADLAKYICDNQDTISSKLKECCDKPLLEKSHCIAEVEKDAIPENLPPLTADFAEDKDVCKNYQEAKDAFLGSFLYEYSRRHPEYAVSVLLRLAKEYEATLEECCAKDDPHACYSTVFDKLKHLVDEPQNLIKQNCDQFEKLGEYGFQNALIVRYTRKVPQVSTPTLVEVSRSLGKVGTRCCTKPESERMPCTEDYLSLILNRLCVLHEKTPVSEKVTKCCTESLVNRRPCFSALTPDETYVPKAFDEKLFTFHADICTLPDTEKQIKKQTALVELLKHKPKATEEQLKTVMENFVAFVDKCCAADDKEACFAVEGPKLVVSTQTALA
Description: as §1

[2] = target: T2, GST (recombinant glutathione S-transferase, pGEX2T) (UniProt P08515 1-218 = GST); test: SPR (Biacore J), Beacon immobilised on CM5 chip
T2 construct: Control protein in SPR
T2 sequence (P08515 whole entry): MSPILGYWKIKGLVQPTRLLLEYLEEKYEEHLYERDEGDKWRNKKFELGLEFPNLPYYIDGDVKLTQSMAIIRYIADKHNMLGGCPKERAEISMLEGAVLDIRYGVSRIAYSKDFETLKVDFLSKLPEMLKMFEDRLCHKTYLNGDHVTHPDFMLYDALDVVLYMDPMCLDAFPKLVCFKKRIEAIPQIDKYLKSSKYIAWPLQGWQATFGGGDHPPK
Description: as §1

[3] = target: T3, GST-CLK4 (recombinant human CLK4 fused to glutathione S-transferase, pGEX4T-1) (human, UniProt Q9HAZ1 1-481); test: SPR (Biacore J), Beacon immobilised on CM5 chip, GST-CLK as analyte
T3 construct: Expressed in E. coli BL21; whole entry named; not shown: glutathione S-transferase tag of expression vector pGEX4T-1
T3 sequence (Q9HAZ1 whole entry, the tested form may be a part): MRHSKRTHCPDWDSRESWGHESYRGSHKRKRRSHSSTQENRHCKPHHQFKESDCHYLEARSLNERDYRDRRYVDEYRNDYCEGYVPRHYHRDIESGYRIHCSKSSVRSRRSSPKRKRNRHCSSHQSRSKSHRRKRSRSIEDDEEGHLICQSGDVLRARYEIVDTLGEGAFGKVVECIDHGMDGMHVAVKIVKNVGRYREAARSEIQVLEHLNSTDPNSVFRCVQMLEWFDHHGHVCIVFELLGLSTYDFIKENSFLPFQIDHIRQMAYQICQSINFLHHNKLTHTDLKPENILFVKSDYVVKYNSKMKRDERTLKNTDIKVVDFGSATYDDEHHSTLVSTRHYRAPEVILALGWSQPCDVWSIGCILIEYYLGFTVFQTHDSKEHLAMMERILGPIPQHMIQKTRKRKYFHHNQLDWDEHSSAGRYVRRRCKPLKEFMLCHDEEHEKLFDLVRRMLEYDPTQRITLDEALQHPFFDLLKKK
Description: (§2) FIG. 3 is a graphical representation showing the interaction between Beacon and human CLK1, 2 and 4. SPR analyses were performed as described in the Examples. Beacon immobilized on CM5 sensor chip generated 1800-2100 RU. Analyte samples injected and the heat treatments are as listed here:—
as §1

[4] = target: T4, GST-CLK1 (recombinant human CLK1 fused to glutathione S-transferase, pGEX4T-1) (human, UniProt P49759 1-484); test: as above
T4 construct: Expressed in E. coli BL21; whole entry named; not shown: glutathione S-transferase tag of expression vector pGEX4T-1
T4 sequence (P49759 whole entry, the tested form may be a part): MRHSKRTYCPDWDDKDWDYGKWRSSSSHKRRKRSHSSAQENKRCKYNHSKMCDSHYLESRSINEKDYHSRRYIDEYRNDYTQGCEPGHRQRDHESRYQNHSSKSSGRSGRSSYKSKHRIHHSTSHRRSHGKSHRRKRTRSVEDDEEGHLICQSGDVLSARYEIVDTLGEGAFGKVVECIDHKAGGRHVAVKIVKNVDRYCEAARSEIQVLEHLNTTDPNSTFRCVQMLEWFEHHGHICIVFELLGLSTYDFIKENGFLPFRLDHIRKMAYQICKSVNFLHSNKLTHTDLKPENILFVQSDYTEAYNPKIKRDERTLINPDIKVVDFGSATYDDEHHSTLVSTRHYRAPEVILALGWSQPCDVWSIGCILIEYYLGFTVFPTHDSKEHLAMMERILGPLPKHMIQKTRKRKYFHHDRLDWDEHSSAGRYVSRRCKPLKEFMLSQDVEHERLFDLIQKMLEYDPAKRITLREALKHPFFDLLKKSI
Description: as §2, §1

[5] = target: T5, GST-CLK2 (recombinant human CLK2 fused to glutathione S-transferase, pGEX4T-1) (human, UniProt P49760 1-499); test: as above
T5 construct: Expressed in E. coli BL21; whole entry named; not shown: glutathione S-transferase tag of expression vector pGEX4T-1
T5 sequence (P49760 whole entry, the tested form may be a part): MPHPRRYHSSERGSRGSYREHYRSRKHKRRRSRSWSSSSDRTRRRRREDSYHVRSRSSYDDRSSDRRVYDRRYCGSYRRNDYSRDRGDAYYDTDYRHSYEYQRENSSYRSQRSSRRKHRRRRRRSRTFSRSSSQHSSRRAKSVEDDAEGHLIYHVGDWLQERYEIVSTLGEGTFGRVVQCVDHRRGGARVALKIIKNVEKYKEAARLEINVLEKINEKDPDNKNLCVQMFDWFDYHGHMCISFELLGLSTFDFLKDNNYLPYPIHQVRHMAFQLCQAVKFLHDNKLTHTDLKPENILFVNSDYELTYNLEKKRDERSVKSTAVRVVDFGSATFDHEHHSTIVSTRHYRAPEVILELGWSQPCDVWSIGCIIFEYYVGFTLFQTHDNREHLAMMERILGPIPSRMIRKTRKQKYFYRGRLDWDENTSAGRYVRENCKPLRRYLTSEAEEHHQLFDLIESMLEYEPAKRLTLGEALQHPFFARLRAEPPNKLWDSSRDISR
Description: as §2, §1

B1: Beacon (recombinant, expressed as GST-Beacon in E. coli, GST tag cleaved off with thrombin) (ligand)
chain: MIEVVCNDRLGKKVRVKCNTDDTIGDLKKLIAAQTGTRWNKIVLKKWYTIFKDHVSLGDYEIHDGMNLELYYQ
notes: Immobilised on a CM5 chip by amine coupling (SPR); also injected as analyte over itself
B1: no binding [1]; no binding (maltose binding protein); no binding (bovine serum albumin). B1: no binding [2]; binds [3]; binds [4]. B1: binds [5].

From US20070135335A1 (AUTOGEN RESEARCH, published 2007)
